# The supplement of paper PMC9112550, “Optimization of the antimicrobial peptide Bac7 by deep mutational scanning” (BMC Biology, 2022)
# System: Escherichia coli TOP10
# Experiment: shrunken log2 fold change of peptide-encoding DNA abundance (4.5 h post-induction vs induction); higher = less antimicrobial activity (less host growth inhibition)
# Details: time post-induction: 4.5 h; library: site-saturation at positions 5, 18, 19, 20
# 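Further: peptides expressed intracellularly from a pBAD plasmid library in pooled LB shake-flask culture, induced with 0.3% L-arabinose, DNA abundance read by NGS, three biological replicates, DESeq2 with apeglm shrinkage.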
row,Sequence,shrunken log2 fold change
1,RRIRMRPPRLPRPRPRPCTPPRP,0.154
2,RRIRRRPPRLPRPRPRPLAWPRP,0.226
3,RRIRKRPPRLPRPRPRPSEQPRP,0.0244
4,RRIRGRPPRLPRPRPRPCWDPRP,0.217
5,RRIRIRPPRLPRPRPRPVAIPRP,0.0188
6,RRIRQRPPRLPRPRPRPQIFPRP,-0.0511
7,RRIRCRPPRLPRPRPRPWMWPRP,-0.00829
8,RRIRNRPPRLPRPRPRPQCIPRP,-0.135
9,RRIRTRPPRLPRPRPRPCRIPRP,-0.0965
10,RRIRMRPPRLPRPRPRPKCQPRP,1.33
11,RRIRPRPPRLPRPRPRPQCKPRP,-0.398
12,RRIRWRPPRLPRPRPRPDTIPRP,-0.019
13,RRIRSRPPRLPRPRPRPSLLPRP,-0.146
14,RRIRPRPPRLPRPRPRPIMHPRP,-0.0526
15,RRIRVRPPRLPRPRPRPKMSPRP,-0.122
16,RRIRVRPPRLPRPRPRPTMTPRP,0.11
17,RRIRQRPPRLPRPRPRPGELPRP,-0.091
18,RRIRLRPPRLPRPRPRPHYMPRP,-0.969
19,RRIRGRPPRLPRPRPRPASMPRP,0.548
20,RRIRSRPPRLPRPRPRPWRSPRP,0.00174
21,RRIRRRPPRLPRPRPRPIENPRP,-0.0103
22,RRIRHRPPRLPRPRPRPYENPRP,-0.0765
23,RRIRHRPPRLPRPRPRPYQVPRP,-0.0252
24,RRIRKRPPRLPRPRPRPKAWPRP,-0.0159
25,RRIRPRPPRLPRPRPRPMGNPRP,-0.0876

row,Sequence,shrunken log2 fold change
1,RRIRTRPPRLPRPRPRPVCWPRP,0.304
2,RRIRGRPPRLPRPRPRPWIQPRP,0.0532
3,RRIRPRPPRLPRPRPRPPLTPRP,0.274
4,RRIRLRPPRLPRPRPRPHLQPRP,-0.0975
5,RRIRYRPPRLPRPRPRPVYHPRP,-0.586
6,RRIRRRPPRLPRPRPRPKMVPRP,0.105
7,RRIRCRPPRLPRPRPRPGDQPRP,0.256
8,RRIRWRPPRLPRPRPRPGFDPRP,0.517
9,RRIRCRPPRLPRPRPRPGNDPRP,0.00582
10,RRIRHRPPRLPRPRPRPLEHPRP,-0.00318
11,RRIRLRPPRLPRPRPRPSKHPRP,-0.642
12,RRIRSRPPRLPRPRPRPCPCPRP,-0.138
13,RRIRHRPPRLPRPRPRPSHCPRP,-0.0642
14,RRIRYRPPRLPRPRPRPWGSPRP,-0.482
15,RRIRNRPPRLPRPRPRPFRGPRP,0.168
16,RRIRRRPPRLPRPRPRPCNKPRP,-0.137
17,RRIRARPPRLPRPRPRPVDYPRP,0.197
18,RRIRMRPPRLPRPRPRPPARPRP,1.4
19,RRIRTRPPRLPRPRPRPNWCPRP,-0.0796
20,RRIRNRPPRLPRPRPRPTVGPRP,-0.0817
21,RRIRARPPRLPRPRPRPSWTPRP,-0.392
22,RRIRLRPPRLPRPRPRPCLCPRP,-0.0557
23,RRIRRRPPRLPRPRPRPNQDPRP,0.125
24,RRIRLRPPRLPRPRPRPPDVPRP,-0.0115
25,RRIRTRPPRLPRPRPRPAMQPRP,-0.00933

row,Sequence,shrunken log2 fold change
1,RRIRLRPPRLPRPRPRPIPYPRP,-0.401
2,RRIRNRPPRLPRPRPRPATEPRP,0.00868
3,RRIRKRPPRLPRPRPRPTYCPRP,0.135
4,RRIRWRPPRLPRPRPRPHIRPRP,0.00375
5,RRIRTRPPRLPRPRPRPMDLPRP,-0.0399
6,RRIRRRPPRLPRPRPRPPAYPRP,0.618
7,RRIRKRPPRLPRPRPRPSSTPRP,-0.151
8,RRIRKRPPRLPRPRPRPRCRPRP,0.506
9,RRIRQRPPRLPRPRPRPDAKPRP,0.199
10,RRIRGRPPRLPRPRPRPFLNPRP,0.18
11,RRIRIRPPRLPRPRPRPYASPRP,-0.206
12,RRIRFRPPRLPRPRPRPYDWPRP,-0.147
13,RRIRLRPPRLPRPRPRPTWSPRP,0.201
14,RRIRGRPPRLPRPRPRPGPAPRP,1.02
15,RRIRERPPRLPRPRPRPDRMPRP,-0.0498
16,RRIRERPPRLPRPRPRPMQQPRP,-0.0321
17,RRIRQRPPRLPRPRPRPVKIPRP,0.352
18,RRIRDRPPRLPRPRPRPSKMPRP,-0.0126
19,RRIRCRPPRLPRPRPRPQGRPRP,0.445
20,RRIRSRPPRLPRPRPRPPQAPRP,0.768
21,RRIRDRPPRLPRPRPRPNHQPRP,-0.303
22,RRIRYRPPRLPRPRPRPHDMPRP,-0.00277
23,RRIRIRPPRLPRPRPRPGMVPRP,0.0533
24,RRIRDRPPRLPRPRPRPHELPRP,-0.124
25,RRIRARPPRLPRPRPRPRKDPRP,0.173
